In patent US20160326237A1 (ANNEXON, published 2016):

What was measured:
human C1q [1] = molecular target: T1, human C1q (human, UniProt P02745 23-245; P02746 28-253; P02747 29-245); assay: BLI (OCTET), C1q immobilised, antibody 2.0 ug/ml
T1 construct: Native C1q (about 460 kDa) holds several copies of each chain; also called hC1q; C1Q antigen

mouse C1q [2] = molecular target: T2, mouse C1q (mouse, UniProt P14106 26-253); assay: BLI (OCTET), C1q immobilised, antibody 2.0 ug/ml
human C1q [3] = molecular target: T1, human C1q; assay: BLI (OCTET)
mouse C1q [4] = molecular target: T2, mouse C1q; assay: BLI (OCTET)

T2 sequence (chain, as listed by the source, chain 1 of 3): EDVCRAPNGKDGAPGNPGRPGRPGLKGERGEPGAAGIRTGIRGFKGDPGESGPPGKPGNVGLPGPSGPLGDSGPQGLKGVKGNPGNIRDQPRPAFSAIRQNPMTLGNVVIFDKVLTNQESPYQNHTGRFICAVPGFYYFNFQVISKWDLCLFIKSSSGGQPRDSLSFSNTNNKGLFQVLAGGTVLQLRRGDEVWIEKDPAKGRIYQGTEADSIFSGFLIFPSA
T2 sequence (P14106 26-253, chain 2 of 3): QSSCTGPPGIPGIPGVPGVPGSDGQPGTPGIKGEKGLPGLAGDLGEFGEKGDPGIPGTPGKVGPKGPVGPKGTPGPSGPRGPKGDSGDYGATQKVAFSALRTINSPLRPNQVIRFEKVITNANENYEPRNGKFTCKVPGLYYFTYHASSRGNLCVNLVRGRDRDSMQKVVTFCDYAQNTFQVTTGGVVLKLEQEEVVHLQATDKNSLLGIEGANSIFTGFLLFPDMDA
T2 sequence (chain, as listed by the source, chain 3 of 3): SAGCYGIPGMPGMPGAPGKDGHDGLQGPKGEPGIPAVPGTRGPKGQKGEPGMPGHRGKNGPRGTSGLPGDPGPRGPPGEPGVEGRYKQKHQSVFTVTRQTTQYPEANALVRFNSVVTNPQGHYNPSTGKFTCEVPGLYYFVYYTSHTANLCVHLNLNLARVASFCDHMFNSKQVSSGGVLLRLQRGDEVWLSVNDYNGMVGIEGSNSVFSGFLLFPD
T1 sequence (P02745 23-245 limits assumed, chain 1 of 3): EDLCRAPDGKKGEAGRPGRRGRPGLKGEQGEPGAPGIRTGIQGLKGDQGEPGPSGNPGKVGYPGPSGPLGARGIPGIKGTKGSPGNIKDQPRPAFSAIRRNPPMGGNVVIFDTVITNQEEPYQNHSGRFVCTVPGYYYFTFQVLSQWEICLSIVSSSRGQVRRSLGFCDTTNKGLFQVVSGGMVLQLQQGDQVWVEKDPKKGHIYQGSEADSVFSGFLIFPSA
T1 sequence (P02746 28-253 limits assumed, chain 2 of 3): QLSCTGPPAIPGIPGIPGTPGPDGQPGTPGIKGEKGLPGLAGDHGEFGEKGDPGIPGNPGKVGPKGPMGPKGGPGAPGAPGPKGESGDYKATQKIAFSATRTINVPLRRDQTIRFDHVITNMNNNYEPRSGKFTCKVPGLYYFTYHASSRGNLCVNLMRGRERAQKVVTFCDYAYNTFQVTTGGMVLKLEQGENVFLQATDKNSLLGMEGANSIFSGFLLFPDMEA
T1 sequence (P02747 29-245 limits assumed, chain 3 of 3): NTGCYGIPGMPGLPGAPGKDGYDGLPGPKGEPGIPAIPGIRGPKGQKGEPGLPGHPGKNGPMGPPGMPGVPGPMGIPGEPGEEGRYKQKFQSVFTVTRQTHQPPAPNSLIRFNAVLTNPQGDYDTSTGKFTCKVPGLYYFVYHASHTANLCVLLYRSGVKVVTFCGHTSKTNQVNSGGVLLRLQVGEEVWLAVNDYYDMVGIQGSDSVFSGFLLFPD

Kd (human C1q [1]): 0.0128 nM
koff (human C1q [1]): 6.31e-05 s⁻¹
kon (human C1q [1]): 5.18e+06 M⁻¹ s⁻¹
Kd (mouse C1q [2]): 0.0323 nM
koff (mouse C1q [2]): 5.84e-05 s⁻¹
kon (mouse C1q [2]): 1.81e+06 M⁻¹ s⁻¹
Kd (human C1q [3]): < 0.1 nM
Kd (mouse C1q [4]): < 0.1 nM
B1: murine anti-human C1q monoclonal antibody M1 (antibody)
chain 1: QVQLQQPGAELVKPGASVKLSCKSSGYHFTSYWMHWVKQRPGQGLEWIGVIHPNSGSINYNEKFESKATLTVDKSSSTAYMQLSSLTSEDSAVYYCAGERDSTEVLPMDYWGQGTSVTVSS
chain 2: DVQITQSPSYLAASPGETITINCRASKSINKYLAWYQEKPGKTNKLLIYSGSTLQSGIPSRFSGSGSGTDFTLTISSLEPEDFAMYYCQQHNEYPLTFGAGTKLELK
